Experiments:
[1] = molecular target: T1, OsGNAT2 (Oryza sativa, UniProt Q5KQI6); assay: PDH-coupled continuous assay (NADH, […] nm); format: biochemical; settings: upper bound inferred from no gain between 100 and 500 μM Ac-CoA; peptide substrate; pH 8.0; 30 °C
T1 construct: gene SNAT1

[2] = molecular target: Schizosaccharomyces pombe NatA (SpNaa15 full length + SpNaa10 full length heterodimer) (Schizosaccharomyces pombe)
[3] = molecular target: Schizosaccharomyces pombe NatA (SpNaa15 full length + SpNaa10 full length heterodimer) (Schizosaccharomyces pombe); remark: listed apart in the source
[4] = substrate: CC(=O)SCCNC(=O)CCNC(=O)[C@H](O)C(C)(C)COP(=O)(O)OP(=O)(O)OC[C@H]1O[C@@H](n2cnc3c(N)ncnc32)[C@H](O)[C@@H]1OP(=O)(O)O; assay: purified protein; settings: extrapolated to saturating reference peptide …, 12.5-500 μM Ac-CoA, pH 8.0, 30 °C

T1 sequence (Q5KQI6 89-254): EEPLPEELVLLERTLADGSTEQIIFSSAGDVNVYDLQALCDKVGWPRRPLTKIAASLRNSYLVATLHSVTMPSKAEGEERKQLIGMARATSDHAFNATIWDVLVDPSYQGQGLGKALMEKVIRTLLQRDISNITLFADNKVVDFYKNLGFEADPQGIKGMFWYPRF

| Km of the peptide substrate, PDH-coupled acetylation assay, 100 μM Ac-CoA, 30°C (value as told in the text) [2] [mM] | Km of the peptide substrate, PDH-coupled acetylation assay, 100 μM Ac-CoA, 30°C [3] [mM] | Molecule | also measured |
| --- | --- | --- | --- |
| – | – | CC(=O)SCCNC(=O)CCNC(=O)[C@H](O)C(C)(C)COP(=O)(O)OP(=O)(O)OC[C@H]1O[C@@H](n2cnc3c(N)ncnc32)[C@H](O)[C@@H]1OP(=O)(O)O [Ac-CoA] | Km [1]: < 0.03 mM |
| 12 | 14.8 | SASEAGVR [peptide SASEAGVR] | – |
| – | 2.3 | SASEAGVAEQVKKLSVNDS [natural 19-amino acid N-terminal sequence of yeast Ths1p, …] | – |
| 19 | 25.5 | SASEAGV [peptide SASEAGV] | – |
| – | – | SpNatA (Schizosaccharomyces pombe 972h-) (protein) MDIRPARISDLTGMQNCNLHNLPENYQLKYYLYHAISWPMLSYVATDPKGRVVGYVLAKMEEEPKDGIPHGHITSVSVMRSYRHLGLAKRLMVQSQRAMVEVYGAKYMSLHVRKSNRAAIHLYRDTLQFDVQGIESKYYADGEDAYAMHKDFSTLKFDTPETNDELAKTVQSLALNN | Km [4]: 0.020 ± 0.003 mM; kcat [4]: 10 s⁻¹; kcat/Km [4]: 508000 ± 89900 M⁻¹ s⁻¹ |
| – | 1 | SASEAGVRWGRPVGRRRRP [reference peptide … (canonical NatA substrate)] | – |
